Laboratory results from article PMC314469, “Protein Interaction Networks by Proteome Peptide Scanning” (PLoS Biology, 2004).

Columns and labels:
Experiment in all cases: SPOT array
[1] = molecular target: T1, Myo5 SH3 (MYO5_YEAST), Q04439
T1 chain: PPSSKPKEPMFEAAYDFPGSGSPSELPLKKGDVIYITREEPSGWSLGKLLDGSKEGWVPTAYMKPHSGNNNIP

[2] = molecular target: Sho1 SH3 (SHO1_YEAST), P40073
[3] = molecular target: T2, Yfr024 SH3 (LSB3_YEAST), P43603
T2 chain: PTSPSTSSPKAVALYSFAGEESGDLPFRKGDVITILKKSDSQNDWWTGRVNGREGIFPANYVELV

[4] = molecular target: T3, Boi2 SH3 (BOI2_YEAST), P39969
T3 chain: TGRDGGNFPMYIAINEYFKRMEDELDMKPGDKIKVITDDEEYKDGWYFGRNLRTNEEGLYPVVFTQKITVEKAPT

[5] = molecular target: T4, Rvs167 SH3 (RV167_YEAST), P39743
T4 chain: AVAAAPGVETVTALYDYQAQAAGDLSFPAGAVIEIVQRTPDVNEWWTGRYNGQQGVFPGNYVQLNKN

[6] = molecular target: T5, Boi1 SH3 (BOI1_YEAST), P38041
T5 chain: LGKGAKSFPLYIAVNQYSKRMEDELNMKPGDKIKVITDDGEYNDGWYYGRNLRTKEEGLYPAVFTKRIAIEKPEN

[7] = molecular target: T6, Yhr016c SH3 (YSC84_YEAST), P32793
T6 chain: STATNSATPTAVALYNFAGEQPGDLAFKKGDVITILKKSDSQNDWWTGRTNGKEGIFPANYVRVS

Sho1 SH3 (SHO1_YEAST), P40073, sequence (P40073 295-366): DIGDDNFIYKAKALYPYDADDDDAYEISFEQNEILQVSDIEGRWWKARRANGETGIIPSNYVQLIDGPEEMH

Binder: LGLHKWLPDIPLFE [YOR336W 752-765]
- normalised SPOT signal, Boehringer light units (BLU); mean over the file's lines of this peptide [1]: 168
- normalised SPOT signal, Boehringer light units (BLU); mean over the file's lines of this peptide [2]: 10800
- normalised SPOT signal, Boehringer light units (BLU); mean over the file's lines of this peptide [3]: 49
- normalised SPOT signal, Boehringer light units (BLU); mean over the file's lines of this peptide [4]: 15.1
- normalised SPOT signal, Boehringer light units (BLU); mean over the file's lines of this peptide [5]: 16.5
- normalised SPOT signal, Boehringer light units (BLU); mean over the file's lines of this peptide [6]: 180
- normalised SPOT signal, Boehringer light units (BLU); mean over the file's lines of this peptide [7]: 44.6

Binder: LGPLKYAPHLPFSK [YJL176C 589-602]
- normalised SPOT signal, Boehringer light units (BLU); mean over the file's lines of this peptide [1]: 428
- normalised SPOT signal, Boehringer light units (BLU); mean over the file's lines of this peptide [2]: 227
- normalised SPOT signal, Boehringer light units (BLU); mean over the file's lines of this peptide [3]: 213
- normalised SPOT signal, Boehringer light units (BLU); mean over the file's lines of this peptide [4]: 71.6
- normalised SPOT signal, Boehringer light units (BLU); mean over the file's lines of this peptide [5]: 81.1
- normalised SPOT signal, Boehringer light units (BLU); mean over the file's lines of this peptide [6]: 133
- normalised SPOT signal, Boehringer light units (BLU); mean over the file's lines of this peptide [7]: 150

Binder: LGSEKSSPLAPAVA [YDL197C 382-395]
- normalised SPOT signal, Boehringer light units (BLU); mean over the file's lines of this peptide [1]: 122
- normalised SPOT signal, Boehringer light units (BLU); mean over the file's lines of this peptide [2]: 11.2
- normalised SPOT signal, Boehringer light units (BLU); mean over the file's lines of this peptide [3]: 21.4
- normalised SPOT signal, Boehringer light units (BLU); mean over the file's lines of this peptide [4]: 52.5
- normalised SPOT signal, Boehringer light units (BLU); mean over the file's lines of this peptide [5]: 64.8
- normalised SPOT signal, Boehringer light units (BLU); mean over the file's lines of this peptide [6]: 72.6
- normalised SPOT signal, Boehringer light units (BLU); mean over the file's lines of this peptide [7]: 26.8

Binder: LIDFKDYPDVPKVP [YNL231C 198-211]
- normalised SPOT signal, Boehringer light units (BLU); mean over the file's lines of this peptide [1]: 154
- normalised SPOT signal, Boehringer light units (BLU); mean over the file's lines of this peptide [2]: 36
- normalised SPOT signal, Boehringer light units (BLU); mean over the file's lines of this peptide [3]: 12.7
- normalised SPOT signal, Boehringer light units (BLU); mean over the file's lines of this peptide [4]: 47.9
- normalised SPOT signal, Boehringer light units (BLU); mean over the file's lines of this peptide [5]: 28.2
- normalised SPOT signal, Boehringer light units (BLU); mean over the file's lines of this peptide [6]: 15.5
- normalised SPOT signal, Boehringer light units (BLU); mean over the file's lines of this peptide [7]: 2

Binder: LITDKEYPVRPAYT [YKL196C 79-92]
- normalised SPOT signal, Boehringer light units (BLU); mean over the file's lines of this peptide [1]: 136
- normalised SPOT signal, Boehringer light units (BLU); mean over the file's lines of this peptide [2]: 7.7
- normalised SPOT signal, Boehringer light units (BLU); mean over the file's lines of this peptide [3]: 126
- normalised SPOT signal, Boehringer light units (BLU); mean over the file's lines of this peptide [4]: 21.9
- normalised SPOT signal, Boehringer light units (BLU); mean over the file's lines of this peptide [5]: 17.5
- normalised SPOT signal, Boehringer light units (BLU); mean over the file's lines of this peptide [6]: 139
- normalised SPOT signal, Boehringer light units (BLU); mean over the file's lines of this peptide [7]: 19.3

Binder: LIWHKNKPTEPDNK [YAR009C 1032-1045]
- normalised SPOT signal, Boehringer light units (BLU); mean over the file's lines of this peptide [1]: 155
- normalised SPOT signal, Boehringer light units (BLU); mean over the file's lines of this peptide [2]: 82.2
- normalised SPOT signal, Boehringer light units (BLU); mean over the file's lines of this peptide [3]: 587
- normalised SPOT signal, Boehringer light units (BLU); mean over the file's lines of this peptide [4]: 29.2
- normalised SPOT signal, Boehringer light units (BLU); mean over the file's lines of this peptide [5]: 102
- normalised SPOT signal, Boehringer light units (BLU); mean over the file's lines of this peptide [6]: 120
- normalised SPOT signal, Boehringer light units (BLU); mean over the file's lines of this peptide [7]: 94.9

Binder: LIWHKNKPTKPDNK [YBL101W-B 1606-1619]
- normalised SPOT signal, Boehringer light units (BLU); mean over the file's lines of this peptide [1]: 300
- normalised SPOT signal, Boehringer light units (BLU); mean over the file's lines of this peptide [2]: 106
- normalised SPOT signal, Boehringer light units (BLU); mean over the file's lines of this peptide [3]: 862
- normalised SPOT signal, Boehringer light units (BLU); mean over the file's lines of this peptide [4]: 27.9
- normalised SPOT signal, Boehringer light units (BLU); mean over the file's lines of this peptide [5]: 85.3
- normalised SPOT signal, Boehringer light units (BLU); mean over the file's lines of this peptide [6]: 268
- normalised SPOT signal, Boehringer light units (BLU); mean over the file's lines of this peptide [7]: 71.1

Binder: LIWHKSKPVKPTNK [YBL005W-B 1591-1604]
- normalised SPOT signal, Boehringer light units (BLU); mean over the file's lines of this peptide [1]: 354
- normalised SPOT signal, Boehringer light units (BLU); mean over the file's lines of this peptide [2]: 106
- normalised SPOT signal, Boehringer light units (BLU); mean over the file's lines of this peptide [3]: 1320
- normalised SPOT signal, Boehringer light units (BLU); mean over the file's lines of this peptide [4]: 30.5
- normalised SPOT signal, Boehringer light units (BLU); mean over the file's lines of this peptide [5]: 71.9
- normalised SPOT signal, Boehringer light units (BLU); mean over the file's lines of this peptide [6]: 139
- normalised SPOT signal, Boehringer light units (BLU); mean over the file's lines of this peptide [7]: 73

Binder: LKDNRLLPSWPKRG [YIL047C 206-219]
- normalised SPOT signal, Boehringer light units (BLU); mean over the file's lines of this peptide [1]: 518
- normalised SPOT signal, Boehringer light units (BLU); mean over the file's lines of this peptide [2]: 350
- normalised SPOT signal, Boehringer light units (BLU); mean over the file's lines of this peptide [3]: 3640
- normalised SPOT signal, Boehringer light units (BLU); mean over the file's lines of this peptide [4]: 21.8
- normalised SPOT signal, Boehringer light units (BLU); mean over the file's lines of this peptide [5]: 144
- normalised SPOT signal, Boehringer light units (BLU); mean over the file's lines of this peptide [6]: 152
- normalised SPOT signal, Boehringer light units (BLU); mean over the file's lines of this peptide [7]: 488

Binder: LKHTKNKPKNPDTA [YGL131C 1018-1031]
- normalised SPOT signal, Boehringer light units (BLU); mean over the file's lines of this peptide [1]: 406
- normalised SPOT signal, Boehringer light units (BLU); mean over the file's lines of this peptide [2]: 45.5
- normalised SPOT signal, Boehringer light units (BLU); mean over the file's lines of this peptide [3]: 47.5
- normalised SPOT signal, Boehringer light units (BLU); mean over the file's lines of this peptide [4]: 25.8
- normalised SPOT signal, Boehringer light units (BLU); mean over the file's lines of this peptide [5]: 39.5
- normalised SPOT signal, Boehringer light units (BLU); mean over the file's lines of this peptide [6]: 1870
- normalised SPOT signal, Boehringer light units (BLU); mean over the file's lines of this peptide [7]: 16.8

Binder: LKKQKAIPSSPSGM [YMR179W 684-697]
- normalised SPOT signal, Boehringer light units (BLU); mean over the file's lines of this peptide [1]: 307
- normalised SPOT signal, Boehringer light units (BLU); mean over the file's lines of this peptide [2]: 204
- normalised SPOT signal, Boehringer light units (BLU); mean over the file's lines of this peptide [3]: 255
- normalised SPOT signal, Boehringer light units (BLU); mean over the file's lines of this peptide [4]: 16.1
- normalised SPOT signal, Boehringer light units (BLU); mean over the file's lines of this peptide [5]: 35.2
- normalised SPOT signal, Boehringer light units (BLU); mean over the file's lines of this peptide [6]: 711
- normalised SPOT signal, Boehringer light units (BLU); mean over the file's lines of this peptide [7]: 32.4

Binder: LLEERNNPDIPVDK [YBR055C 407-420]
- normalised SPOT signal, Boehringer light units (BLU); mean over the file's lines of this peptide [1]: 312
- normalised SPOT signal, Boehringer light units (BLU); mean over the file's lines of this peptide [2]: 26.1
- normalised SPOT signal, Boehringer light units (BLU); mean over the file's lines of this peptide [3]: 38.8
- normalised SPOT signal, Boehringer light units (BLU); mean over the file's lines of this peptide [4]: 19.6
- normalised SPOT signal, Boehringer light units (BLU); mean over the file's lines of this peptide [5]: 38.3
- normalised SPOT signal, Boehringer light units (BLU); mean over the file's lines of this peptide [6]: 85.4
- normalised SPOT signal, Boehringer light units (BLU); mean over the file's lines of this peptide [7]: 19.5

Binder: LLPTKLIPSIPGGK [YER105C 312-325]
- normalised SPOT signal, Boehringer light units (BLU); mean over the file's lines of this peptide [1]: 172
- normalised SPOT signal, Boehringer light units (BLU); mean over the file's lines of this peptide [2]: 17.1
- normalised SPOT signal, Boehringer light units (BLU); mean over the file's lines of this peptide [3]: 154
- normalised SPOT signal, Boehringer light units (BLU); mean over the file's lines of this peptide [4]: 3.5
- normalised SPOT signal, Boehringer light units (BLU); mean over the file's lines of this peptide [5]: 17.2
- normalised SPOT signal, Boehringer light units (BLU); mean over the file's lines of this peptide [6]: -0
- normalised SPOT signal, Boehringer light units (BLU); mean over the file's lines of this peptide [7]: 14.3

Binder: LLVTKERPRFPEDD [YIL129C 688-701]
- normalised SPOT signal, Boehringer light units (BLU); mean over the file's lines of this peptide [1]: 33.7
- normalised SPOT signal, Boehringer light units (BLU); mean over the file's lines of this peptide [2]: 47.5
- normalised SPOT signal, Boehringer light units (BLU); mean over the file's lines of this peptide [3]: 168
- normalised SPOT signal, Boehringer light units (BLU); mean over the file's lines of this peptide [4]: 7.5
- normalised SPOT signal, Boehringer light units (BLU); mean over the file's lines of this peptide [5]: 16.4
- normalised SPOT signal, Boehringer light units (BLU); mean over the file's lines of this peptide [6]: 126
- normalised SPOT signal, Boehringer light units (BLU); mean over the file's lines of this peptide [7]: 28.4

Binder: LMSLKRFPQLPSNT [YOL125W 162-175]
- normalised SPOT signal, Boehringer light units (BLU); mean over the file's lines of this peptide [1]: 348
- normalised SPOT signal, Boehringer light units (BLU); mean over the file's lines of this peptide [2]: 661
- normalised SPOT signal, Boehringer light units (BLU); mean over the file's lines of this peptide [3]: 2420
- normalised SPOT signal, Boehringer light units (BLU); mean over the file's lines of this peptide [4]: 294
- normalised SPOT signal, Boehringer light units (BLU); mean over the file's lines of this peptide [5]: 1340
- normalised SPOT signal, Boehringer light units (BLU); mean over the file's lines of this peptide [6]: 796
- normalised SPOT signal, Boehringer light units (BLU); mean over the file's lines of this peptide [7]: 554

Binder: LNATKISPSAPSKD [YAR002W 346-359]
- normalised SPOT signal, Boehringer light units (BLU); mean over the file's lines of this peptide [1]: 114
- normalised SPOT signal, Boehringer light units (BLU); mean over the file's lines of this peptide [2]: 31.8
- normalised SPOT signal, Boehringer light units (BLU); mean over the file's lines of this peptide [3]: 38.8
- normalised SPOT signal, Boehringer light units (BLU); mean over the file's lines of this peptide [4]: 0
- normalised SPOT signal, Boehringer light units (BLU); mean over the file's lines of this peptide [5]: 29.4
- normalised SPOT signal, Boehringer light units (BLU); mean over the file's lines of this peptide [6]: 51.9
- normalised SPOT signal, Boehringer light units (BLU); mean over the file's lines of this peptide [7]: 8.4
